Measurements as given in publication PMC8396674.
“And” between values parts separate entries of the source, which are not always exact repeats. Identical values can stand only once. Values belong to the substance of their own block, whether it stands above or below them.

Columns and labels:
[1] = biological target: gC1q domain of human otolin-1, natural variant R342W (human); test: AUC; sedimentation velocity, 0.1, 0.25 and 0.5 mg/mL protein in 10 mM HEPES pH 7.0, 500 mM NaCl, 5% glycerol with 10 mM CaCl2, 20 °C, 50,000 rpm, c(s) analysis; also 0.25 mg/mL with 1 mM DTT
[2] = biological target: gC1q domain of human otolin-1, natural variant R342W (human); test: AUC; sedimentation velocity, 0.1, 0.25 and 0.5 mg/mL protein in 10 mM HEPES pH 7.0, 500 mM NaCl, 5% glycerol with 1 mM EDTA (no Ca2+), 20 °C, 50,000 rpm, c(s) analysis; also 0.25 mg/mL with 1 mM DTT
[3] = biological target: gC1q domain of human otolin-1 (hOtolC1q), wild type (human); test: AUC; sedimentation velocity, 0.1, 0.25 and 0.5 mg/mL protein in 10 mM HEPES pH 7.0, 500 mM NaCl, 5% glycerol with 10 mM CaCl2, 20 °C, 50,000 rpm, c(s) analysis; also 0.25 mg/mL with 1 mM DTT
[4] = biological target: gC1q domain of human otolin-1, natural variant R402P (human); test: as above
[5] = biological target: gC1q domain of human otolin-1, natural variant R402P (human); test: AUC; sedimentation velocity, 0.1, 0.25 and 0.5 mg/mL protein in 10 mM HEPES pH 7.0, 500 mM NaCl, 5% glycerol with 1 mM EDTA (no Ca2+), 20 °C, 50,000 rpm, c(s) analysis; also 0.25 mg/mL with 1 mM DTT
[6] = biological target: gC1q domain of human otolin-1, natural variant Q426R (human); test: AUC; sedimentation velocity, 0.1, 0.25 and 0.5 mg/mL protein in 10 mM HEPES pH 7.0, 500 mM NaCl, 5% glycerol with 10 mM CaCl2, 20 °C, 50,000 rpm, c(s) analysis; also 0.25 mg/mL with 1 mM DTT
[7] = biological target: gC1q domain of human otolin-1, natural variant R339S (human); test: as above

stoichiometry N [1]: 3
stoichiometry N [2]: 2 and 4
Substance: gC1q domain of human otolin-1, natural variant R342W (domain or fragment)

Substance: gC1q domain of human otolin-1 (hOtolC1q), wild type (domain or fragment)
stoichiometry N [3]: 3

stoichiometry N [4]: 2
stoichiometry N [5]: 2
Substance: gC1q domain of human otolin-1, natural variant R402P (domain or fragment)

Substance: gC1q domain of human otolin-1, natural variant Q426R (domain or fragment)
stoichiometry N [6]: 3

Substance: gC1q domain of human otolin-1, natural variant R339S (domain or fragment)
stoichiometry N [7]: 3
